Key:
Assay in all cases: cell-based or functional assay
[1] = molecular target: aMLV envelope (negative control pseudovirus)
[2] = molecular target: HIV-1 MGRM-G-027 Env (HIV-1)
[3] = molecular target: HIV-1 MGRM-F1-008 Env (HIV-1)
[4] = molecular target: HIV-1 MGRM-Chronic-B-002 Env on pseudovirus (HIV-1)
[5] = molecular target: HIV-1 MGRM-Chronic-B-001 Env on pseudovirus (HIV-1)
[6] = molecular target: HIV-1 MGRM-AG-002 Env (HIV-1)
[7] = molecular target: HIV-1 MGRM-Chronic-B-018 Env on pseudovirus (HIV-1)
[8] = molecular target: HIV-1 APV_17 Env on pseudovirus (HIV-1)
[9] = molecular target: HIV-1 MGRM-Chronic-B-011 Env on pseudovirus (HIV-1)
[10] = molecular target: HIV-1 MGRM-F1-015 Env (HIV-1)
[11] = molecular target: HIV-1 MGRM-F1-016 Env (HIV-1)
[12] = molecular target: HIV-1 MGRM-C-024 Env on pseudovirus (HIV-1)
[13] = molecular target: HIV-1 JRFL Env on pseudovirus (HIV-1)
[14] = molecular target: HIV-1 MGRM-AE-001 Env (HIV-1)
[15] = molecular target: HIV-1 CAAN.A2 (Acute) Env on pseudovirus (HIV-1)
[16] = molecular target: HIV-1 92BR020 Env on pseudovirus (HIV-1)
[17] = molecular target: HIV-1 PVO.4 (Acute) Env on pseudovirus (HIV-1)
[18] = molecular target: HIV-1 MGRM-G-014 Env (HIV-1)
[19] = molecular target: HIV-1 MGRM-AG-011 Env (HIV-1)
[20] = molecular target: HIV-1 93UG077 Env (HIV-1)
[21] = molecular target: HIV-1 MGRM-C-020 Env on pseudovirus (HIV-1)
[22] = molecular target: HIV-1 VLGCB3 Env on pseudovirus (HIV-1)
[23] = molecular target: HIV-1 MGRM-G-019 Env (HIV-1)
[24] = molecular target: HIV-1 MGRM-D-005 Env (HIV-1)
[25] = molecular target: HIV-1 MGRM-F1-004 Env (HIV-1)
[26] = molecular target: HIV-1 93MW959 Env on pseudovirus (HIV-1)
[27] = molecular target: HIV-1 MGRM-F1-014 Env (HIV-1)
[28] = molecular target: HIV-1 MGRM-F1-010 Env (HIV-1)
[29] = molecular target: HIV-1 MGRM-AE-002 Env (HIV-1)
[30] = molecular target: HIV-1 98CN006 Env on pseudovirus (HIV-1)
HIV-1 APV-6 Env (HIV-1) = molecular target: HIV-1 APV-6 Env (HIV-1)
[31] = molecular target: HIV-1 92RW020 Env (HIV-1)
aMLV envelope = molecular target: aMLV envelope
[32] = molecular target: HIV-1 92UG001 Env (HIV-1)
[33] = molecular target: HIV-1 92BR020 Env (HIV-1)
[34] = molecular target: HIV-1 MGRM-D-028 Env (HIV-1)
[35] = molecular target: HIV-1 MGRM-D-011 Env (HIV-1)
[36] = molecular target: HIV-1 APV_6 Env on pseudovirus (HIV-1)
[37] = molecular target: HIV-1 MGRM-C-017 Env on pseudovirus (HIV-1)
[38] = molecular target: HIV-1 93IN905 Env (HIV-1)
[39] = molecular target: HIV-1 97ZA012 Env on pseudovirus (HIV-1)
[40] = molecular target: HIV-1 92UG005 Env (HIV-1)
[41] = molecular target: HIV-1 MGRM-C-005 Env on pseudovirus (HIV-1)
HIV-1 CMU02 Env (HIV-1) = molecular target: HIV-1 CMU02 Env (HIV-1)
[42] = molecular target: HIV-1 MGRM-AG-008 Env (HIV-1)
[43] = molecular target: HIV-1 MGRM-C-012 Env on pseudovirus (HIV-1)
[44] = molecular target: HIV-1 MGRM-Chronic-B-004 Env on pseudovirus (HIV-1)
[45] = molecular target: HIV-1 MGRM-AG-009 Env (HIV-1)
[46] = molecular target: HIV-1 94UG103 Env (HIV-1)
[47] = molecular target: HIV-1 MGRM-C-010 Env on pseudovirus (HIV-1)
[48] = molecular target: HIV-1 IAVI-C3 Env (HIV-1)

## b12 (antibody)
[1]
  IC50 (pseudovirus neutralization): > 50 µg/mL
[2]
  IC50 (µg/ml), pseudovirus neutralization: > 50 µg/mL
[3]
  IC50 (pseudovirus neutralization): > 50 µg/mL
[4]
  IC50: 0.86 µg/mL
[5]
  IC50: 0.75 µg/mL
[6]
  IC50 (µg/ml), pseudovirus neutralization: 0.89 µg/mL
[7]
  IC50: 0.66 µg/mL
[8]
  IC50: > 50 µg/mL
[9]
  IC50: 2.11 µg/mL
[10]
  IC50 (pseudovirus neutralization): > 50 µg/mL
[11]
  IC50 (pseudovirus neutralization): > 50 µg/mL
[12]
  IC50: > 50 µg/mL
[13]
  IC50: 0.02 µg/mL
[14]
  IC50 (µg/ml), pseudovirus neutralization: 25.9 µg/mL
[15]
  IC50: > 50 µg/mL
[16]
  IC50: > 50 µg/mL
[17]
  IC50: > 50 µg/mL
[18]
  IC50 (µg/ml), pseudovirus neutralization: > 50 µg/mL
[19]
  IC50 (µg/ml), pseudovirus neutralization: > 50 µg/mL
[20]
  neutralization IC50: 41.1 µg/mL
  neutralization IC90: > 50 µg/mL
[21]
  IC50: > 50 µg/mL
[22]
  IC50: 0.15 µg/mL
[23]
  IC50 (µg/ml), pseudovirus neutralization: 3.77 µg/mL
[24]
  IC50 (µg/ml), pseudovirus neutralization: > 50 µg/mL
[25]
  IC50 (pseudovirus neutralization): > 50 µg/mL
[26]
  IC50: > 50 µg/mL
[27]
  IC50 (pseudovirus neutralization): > 50 µg/mL
[28]
  IC50 (pseudovirus neutralization): > 50 µg/mL
[29]
  IC50 (µg/ml), pseudovirus neutralization: 17.1 µg/mL
[30]
  IC50: > 50 µg/mL
HIV-1 APV-6 Env (HIV-1)
  neutralization IC50: > 25 µg/mL
  neutralization IC90: > 50 µg/mL
[31]
  neutralization IC50: > 50 µg/mL
  neutralization IC90: > 50 µg/mL
aMLV envelope
  neutralization IC50: > 50 µg/mL
  neutralization IC90: > 50 µg/mL
[32]
  IC50 (µg/ml), pseudovirus neutralization: 1.01 µg/mL
[33]
  neutralization IC50: 27.5 µg/mL
  neutralization IC90: > 50 µg/mL
[34]
  IC50 (µg/ml), pseudovirus neutralization: 0.78 µg/mL
[35]
  IC50 (µg/ml), pseudovirus neutralization: 7.75 µg/mL
[36]
  IC50: > 50 µg/mL
[37]
  IC50: > 50 µg/mL
[38]
  neutralization IC50: 34.1 µg/mL
  neutralization IC90: > 50 µg/mL
[39]
  IC50: > 50 µg/mL
[40]
  IC50 (µg/ml), pseudovirus neutralization: > 50 µg/mL
  neutralization IC50: > 50 µg/mL
  neutralization IC90: > 50 µg/mL
[41]
  IC50: 2.66 µg/mL
HIV-1 CMU02 Env (HIV-1)
  IC50 (µg/ml), pseudovirus neutralization: 29.3 µg/mL
  neutralization IC50: 4.25 µg/mL
  neutralization IC90: 34.2 µg/mL
[42]
  IC50 (µg/ml), pseudovirus neutralization: > 50 µg/mL
[43]
  IC50: > 50 µg/mL
[44]
  IC50: 0.26 µg/mL
[45]
  IC50 (µg/ml), pseudovirus neutralization: > 50 µg/mL
[46]
  neutralization IC50: 3.54 µg/mL
  neutralization IC90: 47.3 µg/mL
[47]
  IC50: > 50 µg/mL
[48]
  neutralization IC50: 5 µg/mL
